Test results reported in the supplement of paper PMC7877785.
± gives the uncertainty stated by the source.

Test: self-splicing fitness, log relative to wild type (ln ratio); higher = more splicing; Tetrahymena group I intron in knt gene, E. coli kanamycin selection, DiMSum; sequences stand for … in CUCUCU…GGAGGGAAAAGUUAUCAGGCAUGCACCUGGUAGCUAGUCUUUAAACCAAUAGAUUGCAUCGGUUUAAAAGGCAAGACCGUCAAAUUGCGGGAAAGGGGUCAACAGCCGUUCAGUACCAAGUCUCAGGGGAAACUUUGAGAUGGCCUUGCAAAGGGUAUGGUAAUAAGCUGACGGACAUGGUCCUAACCACGCAGCCAAGUCCUAAGUCAACAGAUCUUCUGUUGAUAUGGAUGCAGUUCACAGACUAAAUGUCGGUCGGGGAAGAUGUAUUCUUCUCAUAAGAUAUAGUCGGACCUCUCCUUAAUGGGAGCUAGCGGAUGAAGUGAUGCAACACUGGAGCCGCUGGGAACUAAUUUGUAUGCGAAAGUAUAUUGAUUAGUUUUGGAGUACUCGUGGUCG
In short: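 Library with all eight P1ex-region intron nucleotides randomised, intron inside the knt kanamycin-resistance gene on pET-22b(+), in E. coli BL21(DE3). Cells grew overnight at 37°C or 30°C on LB agar with or without 25 μg/mL kanamycin (plus 100 μg/mL carbenicillin, 50 μM IPTG, 0.2% rhamnose), in six replicate transformations. Pooled colonies were amplicon-sequenced on Illumina HiSeq 2500. DiMSum fitness is the error-weighted combination of wild-type-normalised replicate fold changes, kanamycin versus none.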

Sequence	self-splicing fitness (ln) (30 °C)	self-splicing fitness (ln) (37 °C)
UUUAAGCAAUAUUACGACAA	-0.409 ± 0.098	-0.304 ± 0.12
UUUAAGCAAUAUUACGACCA	-0.979 ± 0.27	-0.376 ± 0.24
UUUAAGCAAUAUUACGACCG	-0.889 ± 0.18	0.563 ± 0.26
UUUAAGCAAUAUUACGAGAG	-1.49 ± 0.11	-1.13 ± 0.12
UUUAAGCAAUAUUACGAUUG	-1.36 ± 0.15	-1.12 ± 0.16
UUUAAGCAAUAUUACGCGAA	-1.43 ± 0.12	-0.145 ± 0.15
UUUAAGCAAUAUUACGCGAG	-0.722 ± 0.11	0.0933 ± 0.13
UUUAAGCAAUAUUACGCGUU	-2.79 ± 0.19	-2.51 ± 0.23
UUUAAGCAAUAUUACGCUGG	-2.26 ± 0.21	-0.317 ± 0.18
UUUAAGCAAUAUUACGGACA	-0.552 ± 0.17	-0.126 ± 0.16
UUUAAGCAAUAUUACGGACU	-1.59 ± 0.14	-0.921 ± 0.13
UUUAAGCAAUAUUACGGAGG	-2.95 ± 0.22	-2.18 ± 0.27
UUUAAGCAAUAUUACGGCUC	-1.82 ± 0.17	-0.633 ± 0.2
UUUAAGCAAUAUUACGGGCG	-0.49 ± 0.13	0.635 ± 0.21
UUUAAGCAAUAUUACGUACU	-1.14 ± 0.12	-0.327 ± 0.14
UUUAAGCAAUAUUACGUAGC		-2.34 ± 0.36
UUUAAGCAAUAUUACGUCCG	-1.17 ± 0.22	0.606 ± 0.21
UUUCAGCAAUAUUACGAAAG	-3.23 ± 0.24	-1.87 ± 0.22
UUUCAGCAAUAUUACGAAUU	-1.67 ± 0.081	-0.87 ± 0.12
UUUCAGCAAUAUUACGACAC	-2.24 ± 0.16	-2.97 ± 0.22
UUUCAGCAAUAUUACGACCU	-1.28 ± 0.25	-0.834 ± 0.43
UUUCAGCAAUAUUACGAGGA	-0.995 ± 0.18	-0.121 ± 0.22
UUUCAGCAAUAUUACGAGUU	-2.96 ± 0.25	-2.06 ± 0.19
UUUCAGCAAUAUUACGAUAA	0.592 ± 0.13	0.707 ± 0.15
UUUCAGCAAUAUUACGAUCU	-2.25 ± 0.19	-0.561 ± 0.17

Sequence	self-splicing fitness (ln) (30 °C)	self-splicing fitness (ln) (37 °C)
UUUCAGCAAUAUUACGAUUA	0.327 ± 0.096	0.0465 ± 0.088
UUUCAGCAAUAUUACGCAAC	-3.51 ± 0.28	-1.8 ± 0.22
UUUCAGCAAUAUUACGCACA	-0.372 ± 0.12	0.127 ± 0.15
UUUCAGCAAUAUUACGCCGA		-0.923 ± 0.44
UUUCAGCAAUAUUACGGAAA	-2.7 ± 0.47	-2.07 ± 0.22
UUUCAGCAAUAUUACGGAAU	-3.77 ± 0.23	-2 ± 0.2
UUUCAGCAAUAUUACGGGUA	-0.909 ± 0.1	-0.337 ± 0.12
UUUCAGCAAUAUUACGGUAU	-3.02 ± 0.19	-1.67 ± 0.15
UUUCAGCAAUAUUACGGUUU	-0.595 ± 0.073	-0.244 ± 0.092
UUUCAGCAAUAUUACGUCCC	-1.43 ± 0.39	-0.811 ± 0.4
UUUCAGCAAUAUUACGUCCG	-1.59 ± 0.14	-1 ± 0.21
UUUCAGCAAUAUUACGUCCU	-2.99 ± 0.42	-1.32 ± 0.28
UUUCAGCAAUAUUACGUGCA	-0.77 ± 0.13	0.0542 ± 0.17
UUUCAGCAAUAUUACGUGCG	-1.27 ± 0.12	0.0636 ± 0.11
UUUGAGCAAUAUUACGACGG	-0.966 ± 0.16	-0.751 ± 0.23
UUUGAGCAAUAUUACGAUAG	-2.09 ± 0.19	-1.87 ± 0.23
UUUGAGCAAUAUUACGAUGA	-0.96 ± 0.19	-0.161 ± 0.21
UUUGAGCAAUAUUACGCGCG	-1.85 ± 0.13	-0.956 ± 0.19
UUUGAGCAAUAUUACGCGUA		0.0632 ± 0.24
UUUGAGCAAUAUUACGCUCA	-3.33 ± 0.41	-1.6 ± 0.41
UUUGAGCAAUAUUACGCUCG	-3.8 ± 0.4	-2.01 ± 0.34
UUUGAGCAAUAUUACGCUGC	-3.12 ± 0.47	
UUUGAGCAAUAUUACGGACA		-2.57 ± 0.48
UUUGAGCAAUAUUACGGACG	-2.51 ± 0.24	-2.71 ± 0.31
UUUGAGCAAUAUUACGGCAA	-1.72 ± 0.18	-0.742 ± 0.22

Sequence	self-splicing fitness (ln) (30 °C)	self-splicing fitness (ln) (37 °C)
UUUGAGCAAUAUUACGGCCA		-1.17 ± 0.46
UUUGAGCAAUAUUACGGUAG	-2.82 ± 0.39	-2.41 ± 0.36
UUUGAGCAAUAUUACGGUGA	-2.07 ± 0.15	-2.46 ± 0.18
UUUGAGCAAUAUUACGGUUA	-2 ± 0.17	-1.57 ± 0.15
UUUGAGCAAUAUUACGUAAA	-1.16 ± 0.15	-1.45 ± 0.2
UUUGAGCAAUAUUACGUAAG	-1.29 ± 0.056	-0.487 ± 0.078
UUUGAGCAAUAUUACGUAGG	-2.52 ± 0.16	-1.32 ± 0.23
UUUGAGCAAUAUUACGUAUU	-3.89 ± 0.27	-2.46 ± 0.21
UUUGAGCAAUAUUACGUUUG	-3.29 ± 0.26	-2 ± 0.31
UUUUAGCAAUAUUACGAAAG	-2.72 ± 0.2	-0.437 ± 0.15
UUUUAGCAAUAUUACGAGCU	-2.57 ± 0.33	-2.22 ± 0.31
UUUUAGCAAUAUUACGAUAA	-0.659 ± 0.14	0.144 ± 0.15
UUUUAGCAAUAUUACGCAAU	-2.98 ± 0.41	
UUUUAGCAAUAUUACGCCGU	-2.64 ± 0.32	-2.8 ± 0.44
UUUUAGCAAUAUUACGCGGA	-2 ± 0.17	-1.44 ± 0.17
UUUUAGCAAUAUUACGCGGU		-1.53 ± 0.45
UUUUAGCAAUAUUACGCUGA	-1.89 ± 0.36	-2.31 ± 0.39
UUUUAGCAAUAUUACGCUUC		-1.81 ± 0.34
UUUUAGCAAUAUUACGGCAU	-2.8 ± 0.41	-0.972 ± 0.29
UUUUAGCAAUAUUACGGCCG	-0.37 ± 0.24	
UUUUAGCAAUAUUACGGGAU	-3.93 ± 0.32	-1.48 ± 0.17
UUUUAGCAAUAUUACGUCAC	-2.38 ± 0.37	
UUUUAGCAAUAUUACGUCUG	-0.654 ± 0.14	-0.153 ± 0.16
UUUUAGCAAUAUUACGUGUU	-4.5 ± 0.46	-3.09 ± 0.24
UUUUAGCAAUAUUACGUUAG	-1.37 ± 0.13	-2.02 ± 0.21
